In patent publication EP4582451A1 (Changchun Genescience Pharmaceutical Co., Ltd., dated 2025):
Read-outs that look alike come from different tables or passages of the source. Blank lines part the entries; values can stand above or below the binder they belong to.

Tests used:
[1] = target: T1, human thyroid-stimulating hormone receptor (TSHR) (human, UniProt P16473 21-764); experiment: flow cytometry (FACS), 293 cells overexpressing human TSHR
T1 construct: whole, on cells; Overexpressed on 293 cells; also called human TSHR
T1 sequence (P16473 21-764): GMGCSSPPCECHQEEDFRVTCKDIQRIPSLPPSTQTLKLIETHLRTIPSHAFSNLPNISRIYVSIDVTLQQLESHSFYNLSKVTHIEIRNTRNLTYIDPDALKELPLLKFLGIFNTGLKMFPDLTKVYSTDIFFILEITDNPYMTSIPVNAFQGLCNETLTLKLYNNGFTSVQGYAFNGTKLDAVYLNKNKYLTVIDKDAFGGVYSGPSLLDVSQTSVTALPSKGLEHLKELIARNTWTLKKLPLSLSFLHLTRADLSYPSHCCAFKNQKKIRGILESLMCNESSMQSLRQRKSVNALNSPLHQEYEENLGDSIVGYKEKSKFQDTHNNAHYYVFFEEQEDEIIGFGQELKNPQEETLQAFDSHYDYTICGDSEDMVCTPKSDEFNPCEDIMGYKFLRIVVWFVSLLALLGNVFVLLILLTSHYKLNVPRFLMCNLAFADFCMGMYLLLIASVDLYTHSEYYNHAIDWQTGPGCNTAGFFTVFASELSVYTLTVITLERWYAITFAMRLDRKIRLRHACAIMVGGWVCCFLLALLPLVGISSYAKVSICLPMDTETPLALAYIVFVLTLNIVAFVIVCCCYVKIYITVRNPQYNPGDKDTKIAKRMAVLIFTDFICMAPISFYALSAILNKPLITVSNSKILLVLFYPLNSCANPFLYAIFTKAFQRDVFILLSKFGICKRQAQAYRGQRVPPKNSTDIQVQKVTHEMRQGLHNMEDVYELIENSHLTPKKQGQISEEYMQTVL

[2] = target: T2, mouse thyroid-stimulating hormone receptor (TSHR) (mouse, UniProt P47750 22-764); experiment: flow cytometry (FACS), 293 cells overexpressing mouse TSHR
T2 construct: whole, on cells; Overexpressed on 293 cells; also called mouse TSHR; murine TSHR
T2 sequence (P47750 22-764): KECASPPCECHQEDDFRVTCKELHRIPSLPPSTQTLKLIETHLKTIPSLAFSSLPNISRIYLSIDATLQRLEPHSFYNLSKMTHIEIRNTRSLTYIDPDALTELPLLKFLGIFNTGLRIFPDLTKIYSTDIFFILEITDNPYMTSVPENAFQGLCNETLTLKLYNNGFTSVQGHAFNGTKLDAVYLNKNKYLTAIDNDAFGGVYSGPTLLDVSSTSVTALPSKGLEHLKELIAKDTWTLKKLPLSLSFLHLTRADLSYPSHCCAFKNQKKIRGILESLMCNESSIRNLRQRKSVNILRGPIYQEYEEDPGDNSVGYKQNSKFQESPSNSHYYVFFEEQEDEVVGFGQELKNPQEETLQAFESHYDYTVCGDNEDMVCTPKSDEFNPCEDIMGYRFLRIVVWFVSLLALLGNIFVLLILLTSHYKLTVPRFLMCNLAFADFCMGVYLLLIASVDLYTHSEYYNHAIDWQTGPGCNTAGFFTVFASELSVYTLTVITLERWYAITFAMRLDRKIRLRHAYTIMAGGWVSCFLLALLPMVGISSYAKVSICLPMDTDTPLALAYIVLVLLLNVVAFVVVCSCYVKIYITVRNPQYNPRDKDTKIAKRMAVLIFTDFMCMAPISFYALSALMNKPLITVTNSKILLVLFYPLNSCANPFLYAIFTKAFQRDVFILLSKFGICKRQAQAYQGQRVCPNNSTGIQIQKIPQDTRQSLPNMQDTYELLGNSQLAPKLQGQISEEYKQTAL

[3] = target: T3, monkey thyroid-stimulating hormone receptor (TSHR) (monkey, UniProt A0A2K5X226 21-764); experiment: flow cytometry (FACS), 293 cells overexpressing monkey TSHR
T3 construct: Overexpressed on 293 cells; also called monkey TSHR
T3 sequence (A0A2K5X226 entry or part of it limits assumed, form in doubt): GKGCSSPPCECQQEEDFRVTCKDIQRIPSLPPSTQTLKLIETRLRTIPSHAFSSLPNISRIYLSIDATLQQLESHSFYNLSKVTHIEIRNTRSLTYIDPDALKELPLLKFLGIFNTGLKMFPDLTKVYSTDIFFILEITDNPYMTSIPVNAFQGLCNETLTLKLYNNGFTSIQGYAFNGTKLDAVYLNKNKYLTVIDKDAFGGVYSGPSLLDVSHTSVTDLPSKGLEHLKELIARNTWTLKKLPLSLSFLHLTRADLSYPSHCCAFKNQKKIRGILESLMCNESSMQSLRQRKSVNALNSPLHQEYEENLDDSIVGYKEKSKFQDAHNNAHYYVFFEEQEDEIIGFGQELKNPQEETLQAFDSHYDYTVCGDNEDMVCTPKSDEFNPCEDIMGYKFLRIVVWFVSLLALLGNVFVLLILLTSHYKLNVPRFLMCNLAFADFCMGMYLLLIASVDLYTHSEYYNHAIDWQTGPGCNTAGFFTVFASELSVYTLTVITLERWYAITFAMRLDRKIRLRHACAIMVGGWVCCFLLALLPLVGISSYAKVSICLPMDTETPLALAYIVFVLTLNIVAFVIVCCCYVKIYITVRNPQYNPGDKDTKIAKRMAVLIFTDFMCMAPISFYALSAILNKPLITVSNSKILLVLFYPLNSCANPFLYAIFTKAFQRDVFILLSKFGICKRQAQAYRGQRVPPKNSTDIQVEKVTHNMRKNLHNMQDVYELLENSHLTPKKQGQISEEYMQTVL

[4] = target: T1, human thyroid-stimulating hormone …; experiment: flow cytometry (FACS), 293 cells overexpressing human TSHR; remark: listed apart in the source
[5] = target: T2, mouse thyroid-stimulating hormone …; experiment: flow cytometry (FACS), 293 cells overexpressing mouse TSHR; remark: listed apart in the source
[6] = target: T3, monkey thyroid-stimulating hormone …; experiment: flow cytometry (FACS), 293 cells overexpressing monkey TSHR; remark: listed apart in the source
[7] = target: T1, human thyroid-stimulating hormone …; experiment: cell-based or functional assay
[8] = target: T1, human thyroid-stimulating hormone …; experiment: flow cytometry (FACS), 293 cells overexpressing human TSHR; remark: listed apart in the source
[9] = target: T2, mouse thyroid-stimulating hormone …; experiment: flow cytometry (FACS), 293 cells overexpressing mouse TSHR; remark: listed apart in the source
[10] = target: T3, monkey thyroid-stimulating hormone …; experiment: flow cytometry (FACS), 293 cells overexpressing monkey TSHR; remark: listed apart in the source
[11] = target: T4, hFcRn-Avi (Biosystems, FCM-H82W7) (human (printed as hFcRn), UniProt P55899 24-297; P61769 21-119, biotin on the Avi tag is implied by capture on an SA chip); experiment: SPR (Biacore 8K+), hFcRn-Avi captured on SA chip, antibody in flow, pH 6.0, 25 C, steady-state fit
T4 construct: Bought reagent

[12] = target: T1, human thyroid-stimulating hormone …; experiment: cell-based or functional assay; remark: listed apart in the source
[13] = target: T2, mouse thyroid-stimulating hormone …; experiment: flow cytometry (FACS), 293 cells overexpressing mouse TSHR; remark: listed apart in the source
[14] = target: T3, monkey thyroid-stimulating hormone …; experiment: flow cytometry (FACS), 293 cells overexpressing monkey TSHR; remark: listed apart in the source

- EC50 [1]: 1.28 nM
- Maximum binding signal [1]: 21000
- EC50 [2]: 2.52 nM
- Maximum binding signal [2]: 11800
- EC50 [3]: 0.98 nM
- Maximum binding signal [3]: 13600
B1: murine antibody mAb001 (antibody, V domains shown)
VH: EVQLVESGGGLVKPGGSLKLSCAASGFTLSDYYIYWVRQTPEKRLEWVATISDGVIYTYYADSVKGRFTISRDNAKNNLYLQMSSLKSEDTAMYFCARAYGSSEVMDYWGQGTSVTVSS
VL: QIVLTQSPAVLSASPGEKVTMTCSASSSVSYMHWYQQKSGTSPKRWIYDTSKLASGVPARFSGSGSGTSYSLTISSMEAEDAATYYCQQWSSNPWTFGGGTKLEIK
notes: Murine monoclonal antibody from hybridoma

- EC50 [1]: 4.74 nM
- Maximum binding signal [1]: 30000
- EC50 [2]: 8.65 nM
- Maximum binding signal [2]: 20800
- EC50 [3]: 2.8 nM
- Maximum binding signal [3]: 24400
B2: murine antibody mAb012 (antibody, V domains shown)
VH: EVQLQQSGPVLLKPGASVKMSCKASGYTFTDYYMNWVKQSHGKSLEWIGVINPYNGESSNNQKFKGKATMTVDKSSSTAYMELNSLTSEDSAVYYCARCYGYGYYFDYWGQGTTLSVAS
VL: QIVLTQSPAIMSASPGEKVTMTCSATSSVTYMHWYQQKSGTSPKRWIYDTSKLTSGVPPRFSGSGSGTSYSLTISSMEAEDAATYYCQQWSTYPYTFGGGTKLEIK
notes: as for B1

- EC50 [4]: 10.4 nM
- Maximum binding signal [4]: 402000
- EC50 [5]: 11.9 nM
- Maximum binding signal [5]: 175000
- EC50 [6]: 9.3 nM
- Maximum binding signal [6]: 313000
B3: humanized antibody cAb21-VH2-VL2 (antibody, human IgG4 S228P, kappa, V domains shown)
VH: QVQLVQSGAEVKKPGASVKVSCKASGYTFSNYWMQWVRQAPGQGLEWIGEIDPADSYTAYSQKFKGRATMTVDTSTSTVYMELSSLRSEDTAVYYCARRNLLRSGDYWGQGTLVTVSS
VL: AIQLTQSPSSLSASVGDRVTITCSASSGITYIHWYQQKPGKAPKRWIYDSSKLASGVPSRFSGSGSGTDYTLTISSLQPEDFATYYCQQWSGNPPTFGQGTKLEIKR
notes: Humanized from mAb021

- EC50 [4]: 8.7 nM
- Maximum binding signal [4]: 398000
- EC50 [5]: 10.4 nM
- Maximum binding signal [5]: 185000
- EC50 [6]: 7.8 nM
- Maximum binding signal [6]: 308000
B4: humanized antibody cAb21-VH1-VL3 (antibody, human IgG4 S228P, kappa, V domains shown)
VH: QVQLVQSGAEVKKPGASVKVSCKASGYTFSNYWMQWVRQAPGQGLEWMGEIDPADSYTAYSQKFKGRVTMTRDTSTSTVYMELSSLRSEDTAVYYCARRNLLRSGDYWGQGTLVTVSS
VL: AIQLTQSPSSLSASVGDRVTITCSASSGITYIHWYQQKPGKAPKRWIYDSSKLASGVPARFSGSGSGTDYTLTISSLQPEDFATYYCQQWSGNPPTFGQGTKLEIKR
notes: Humanized from mAb021

- IC50 (nM), cAMP in 293-human TSHR cells activated by Tab01 [7]: 2.95 nM
- IC50 (nM), cAMP in 293-human TSHR cells activated by Tab02 [7]: 2.74 nM
- Maximum inhibition rate (%), cAMP in 293-human TSHR cells activated by Tab01 [7]: 105%
- Maximum inhibition rate (%), cAMP in 293-human TSHR cells activated by Tab02 [7]: 100%
- EC50 [8]: 5.82 nM
- Max_MFI [8]: 282000
- EC50 [9]: 2.35 nM
- Max_MFI [9]: 138000
- EC50 [10]: 2.77 nM
- Max_MFI [10]: 190000
- Kd [11]: 119 nM
- Response value (RU) [11]: 73.1 RU
B5: hAb01_G4P_V1 (antibody, human IgG4 S228P, kappa)
heavy: EVQLVESGGGLVKPGGSLRLSCAASGFTLSDYYIYWVRQAPGKGLEWVATISDAVIYTYYADSVKGRFTISRDNAKNSLYLQMNSLRAEDTAVYFCARAYGSSEVMDYWGQGTLVTVSSASTKGPSVFPLAPCSRSTSESTAALGCLVKDYFPEPVTVSWNSGALTSGVHTFPAVLQSSGLYSLSSVVTVPSSSLGTKTYTCNVDHKPSNTKVDKRVESKYGPPCPPCPAPEFLGGPSVFLFPPKPKDTLYITREPEVTCVVVDVSQEDPEVQFNWYVDGVEVHNAKTKPREEQFNSTYRVVSVLTVLHQDWLNGKEYKCKVSNKGLPSSIEKTISKAKGQPREPQVYTLPPSQEEMTKNQVSLTCLVKGFYPSDIAVEWESNGQPENNYKTTPPVLDSDGSFFLYSRLTVDKSRWQEGNVFSCSVMHEALHNHYTQKSLSLSLGK
light: EIVLTQSPATLSLSPGERATLSCSASSSVSYMHWYQQKPGQAPKRWIYDTSKLASGVPARFSGSGSGTDYTLTISSLEPEDFAVYYCQQWSSNPWTFGGGTKLEIKRTVAAPSVFIFPPSDEQLKSGTASVVCLLNNFYPREAKVQWKVDNALQSGNSQESVTEQDSKDSTYSLSSTLTLSKADYEKHKVYACEVTHQGLSSPVTKSFNRGEC
notes: also called hAb01_G4_V1

- Kd [11]: 189 nM
- Response value (RU) [11]: 60.7 RU
B6: hAb01_G1 (antibody, human IgG1, kappa)
heavy: not shown
light: EIVLTQSPATLSLSPGERATLSCSASSSVSYMHWYQQKPGQAPKRWIYDTSKLASGVPARFSGSGSGTDYTLTISSLEPEDFAVYYCQQWSSNPWTFGGGTKLEIKRTVAAPSVFIFPPSDEQLKSGTASVVCLLNNFYPREAKVQWKVDNALQSGNSQESVTEQDSKDSTYSLSSTLTLSKADYEKHKVYACEVTHQGLSSPVTKSFNRGEC
notes: Same variable regions as hAb01_G4P, constant region subtype hIgG1

- IC50(nM), cAMP in 293-human TSHR cells activated by Tab01 (30 nM) [12]: 1.3 nM
- IC50(nM), cAMP in 293-human TSHR cells activated by Tab02 (6.5 nM) [12]: 0.91 nM
- Inhibition rate (%), cAMP in 293-human TSHR cells activated by Tab01 (30 nM) [12]: 85.6%
- Inhibition rate (%), cAMP in 293-human TSHR cells activated by Tab02 (6.5 nM) [12]: 87.4%
- EC50 [13]: 2.4 nM
- Maximum binding signal [13]: 113000
- EC50 [14]: 2.19 nM
- Maximum binding signal [14]: 187000
B7: humanized antibody cAb01-VH1-DA-VL2 (antibody, human IgG4 S228P, kappa, V domains shown)
VH: EVQLVESGGGLVKPGGSLRLSCAASGFTLSDYYIYWVRQAPGKGLEWVSTISDAVIYTYYADSVKGRFTISRDNAKNSLYLQMNSLRAEDTAVYYCARAYGSSEVMDYWGQGTLVTVSS
VL: EIVLTQSPATLSLSPGERATLSCSASSSVSYMHWYQQKPGQAPRRWIYDTSKLASGIPARFSGSGSGTDYTLTISSLEPEDFAVYYCQQWSSNPWTFGGGTKLEIKR
notes: Humanized from mAb001

- IC50(nM), cAMP in 293-human TSHR cells activated by Tab01 (30 nM) [12]: 0.29 nM
- IC50(nM), cAMP in 293-human TSHR cells activated by Tab02 (6.5 nM) [12]: 0.23 nM
- Inhibition rate (%), cAMP in 293-human TSHR cells activated by Tab01 (30 nM) [12]: 84%
- Inhibition rate (%), cAMP in 293-human TSHR cells activated by Tab02 (6.5 nM) [12]: 82.8%
- EC50 [13]: 2.09 nM
- Maximum binding signal [13]: 129000
- EC50 [14]: 2.29 nM
- Maximum binding signal [14]: 225000
B8: humanized antibody cAb01-VH3-DA-VL2 (antibody, human IgG4 S228P, kappa, V domains shown)
VH: EVQLVESGGGLVKPGGSLRLSCAASGFTLSDYYIYWVRQAPGKRLEWVATISDAVIYTYYADSVKGRFTISRDNAKNSLYLQMNSLRAEDTAVYFCARAYGSSEVMDYWGQGTLVTVSS
VL: EIVLTQSPATLSLSPGERATLSCSASSSVSYMHWYQQKPGQAPRRWIYDTSKLASGIPARFSGSGSGTDYTLTISSLEPEDFAVYYCQQWSSNPWTFGGGTKLEIKR
notes: Humanized from mAb001

- EC50 [1]: 3.5 nM
- Maximum binding signal [1]: 52000
- EC50 [2]: 10.3 nM
- Maximum binding signal [2]: 31600
- EC50 [3]: 4.5 nM
- Maximum binding signal [3]: 42400
B9: murine antibody mAb021 (antibody, V domains shown)
VH: QVQLQQPGAEHVQPGASVKLSCKASGYTFSNYWMQWVRQRPGQGLDWIGEIDPADSYTAYSQKFKGKATLTVDTSSTTAYMQLSSLTSEDSAVYYCARRNLLRSGDYWGQGTSLTVSS
VL: QIVLTQSPAIMSASPGEKVTMTCSASSGITYIHWYQQKSGTSPKRWIYDSSKLASGVPARFSGSGSGTSYSLTISSMEAEDAATYYCQQWSGNPPTFGAGTKLEVK
notes: as for B1

- EC50 [4]: 10.5 nM
- Maximum binding signal [4]: 420000
- EC50 [5]: 14 nM
- Maximum binding signal [5]: 98800
- EC50 [6]: 8.1 nM
- Maximum binding signal [6]: 269000
B10: humanized antibody cAb12-VH1-QG&S-VL3 (antibody, human IgG4 S228P, kappa, V domains shown)
VH: QVQLVQSGAEVKKPGASVKVSCKASGYTFTDYYMNWVRQAPGQGLEWMGVINPYQGESSNNQKFKGRVTMTRDTSTSTVYMELSSLRSEDTAVYYCARSYGYGYYFDYWGQGTTVTVSS
VL: AIQLTQSPSSLSASVGDRVTITCSATSSVTYMHWYQQKPGKAPKRWIYDTSKLTSGVPPRFSGSGSGTDYTLTISSLQPEDFATYYCQQWSTYPYTFGGGTKLEIKR
notes: Humanized from mAb012

- EC50 [4]: 6.5 nM
- Maximum binding signal [4]: 445000
- EC50 [5]: 15 nM
- Maximum binding signal [5]: 135000
- EC50 [6]: 9.2 nM
- Maximum binding signal [6]: 303000
B11: humanized antibody cAb12-VH3-QG&S-VL3 (antibody, human IgG4 S228P, kappa, V domains shown)
VH: QVQLVQSGAEVKKPGASVKVSCKASGYTFTDYYMNWVKQAPGQGLEWIGVINPYQGESSNNQKFKGRATMTVDKSTSTVYMELSSLRSEDTAVYYCARSYGYGYYFDYWGQGTTVTVSS
VL: AIQLTQSPSSLSASVGDRVTITCSATSSVTYMHWYQQKPGKAPKRWIYDTSKLTSGVPPRFSGSGSGTDYTLTISSLQPEDFATYYCQQWSTYPYTFGGGTKLEIKR
notes: Humanized from mAb012
